Measured values from US20140087995A1 (published 2014).
Numbered stars: 1 amine (or outer) side, 2 acyl side, 3 side chain; on linkers, the order of the positions; unused ones are H or OH. Bridge positions count the residues as written; N and C are the ends. Side chains are listed from the residue outwards. Ends that are not written are not given here. * marks the point of attachment. C20 diacid = O=C(O)CCCCCCCCCCCCCCCCCCC(=O)*; γGlu = O=C(O)[C@H](CCC(=O)[*:2])N[*:1]; AEEA = NCCOCCOCC(=O)O

T1: human calcitonin receptor (human, UniProt P30988 25-474)
T1 construct: whole, on cells; Assay used cell membranes, not intact cells; also called hCTR; hCT
T1 sequence (looked up): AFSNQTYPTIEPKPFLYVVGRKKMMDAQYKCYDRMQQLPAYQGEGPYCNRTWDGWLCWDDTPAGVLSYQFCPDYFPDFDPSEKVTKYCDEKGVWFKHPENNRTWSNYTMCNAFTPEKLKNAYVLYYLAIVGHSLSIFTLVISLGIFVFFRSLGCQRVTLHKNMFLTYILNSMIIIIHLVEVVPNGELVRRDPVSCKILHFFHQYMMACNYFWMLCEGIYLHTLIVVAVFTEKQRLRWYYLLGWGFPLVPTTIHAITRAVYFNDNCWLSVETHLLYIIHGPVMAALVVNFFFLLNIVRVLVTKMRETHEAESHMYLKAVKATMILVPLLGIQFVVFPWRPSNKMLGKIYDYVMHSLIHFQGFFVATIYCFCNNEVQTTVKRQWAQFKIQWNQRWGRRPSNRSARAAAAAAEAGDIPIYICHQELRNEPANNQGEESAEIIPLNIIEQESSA

T2: human amylin receptor (amylin 3(a) receptor: human calcitonin receptor with RAMP-3) (human, UniProt P30988 25-474; O60896 24-148)
T2 construct: whole, on cells; Assay used cell membranes of the Amylin 3(a)/CRE-luc BHK cells, not intact cells; also called hAmylin-R; hAmylinR
T2 sequence (looked up) 1: T1 sequence (looked up)
T2 sequence (looked up) 2: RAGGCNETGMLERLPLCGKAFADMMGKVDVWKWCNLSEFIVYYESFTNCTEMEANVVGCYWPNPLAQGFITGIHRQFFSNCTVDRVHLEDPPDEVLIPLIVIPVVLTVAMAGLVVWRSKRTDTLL

B1: N^ε1-[2-[2-[2-[[2-[2-[2-[[(4S)-4-carboxy-4-(19-carboxynonadecanoylamino)butanoyl]amino]ethoxy]ethoxy]acetyl]amino]ethoxy]ethoxy]acetyl]-[Arg17,Pro21,Pro27,Pro31 … (peptide)
peptide: K([AEEA-AEEA-γGlu-C20 diacid])CNTATCATQRLANFLRHSSPNFGAIPSSTPVGSNTY-NH2
modifications: disulfide 2-7; N-terminus assumed
SMILES: CC[C@H](C)[C@H](NC(=O)[C@H](C)NC(=O)CNC(=O)[C@H](Cc1ccccc1)NC(=O)[C@H](CC(N)=O)NC(=O)[C@@H]1CCCN1C(=O)[C@H](CO)NC(=O)[C@H](CO)NC(=O)[C@H](Cc1c[nH]cn1)NC(=O)[C@H](CCCNC(=N)N)NC(=O)[C@H](CC(C)C)NC(=O)[C@H](Cc1ccccc1)NC(=O)[C@H](CC(N)=O)NC(=O)[C@H](C)NC(=O)[C@H](CC(C)C)NC(=O)[C@H](CCCNC(=N)N)NC(=O)[C@H](CCC(N)=O)NC(=O)[C@@H](NC(=O)[C@H](C)NC(=O)[C@@H]1CSSC[C@H](NC(=O)[C@@H](N)CCCCNC(=O)COCCOCCNC(=O)COCCOCCNC(=O)CC[C@H](NC(=O)CCCCCCCCCCCCCCCCCCC(=O)O)C(=O)O)C(=O)N[C@@H](CC(N)=O)C(=O)N[C@@H]([C@@H](C)O)C(=O)N[C@@H](C)C(=O)N[C@@H]([C@@H](C)O)C(=O)N1)[C@@H](C)O)C(=O)N1CCC[C@H]1C(=O)N[C@@H](CO)C(=O)N[C@@H](CO)C(=O)N[C@H](C(=O)N1CCC[C@H]1C(=O)N[C@H](C(=O)NCC(=O)N[C@@H](CO)C(=O)N[C@@H](CC(N)=O)C(=O)N[C@H](C(=O)N[C@@H](Cc1ccc(O)cc1)C(N)=O)[C@@H](C)O)C(C)C)[C@@H](C)O
notes: also called compound 96
B2: N^ε1-[2-[2-[2-[[(4S)-4-carboxy-4-(19-carboxynonadecanoylamino)butanoyl]amino]ethoxy]ethoxy]acetyl]-[Arg14,Arg17,Pro21,Pro27]-h-amylin (peptide)
peptide: K([AEEA-γGlu-C20 diacid])CNTATCATQRLARFLRHSSPNFGAIPSSTNVGSNTY-NH2
modifications: disulfide 2-7; N-terminus assumed
SMILES: CC[C@H](C)[C@H](NC(=O)[C@H](C)NC(=O)CNC(=O)[C@H](Cc1ccccc1)NC(=O)[C@H](CC(N)=O)NC(=O)[C@@H]1CCCN1C(=O)[C@H](CO)NC(=O)[C@H](CO)NC(=O)[C@H](Cc1c[nH]cn1)NC(=O)[C@H](CCCNC(=N)N)NC(=O)[C@H](CC(C)C)NC(=O)[C@H](Cc1ccccc1)NC(=O)[C@H](CCCNC(=N)N)NC(=O)[C@H](C)NC(=O)[C@H](CC(C)C)NC(=O)[C@H](CCCNC(=N)N)NC(=O)[C@H](CCC(N)=O)NC(=O)[C@@H](NC(=O)[C@H](C)NC(=O)[C@@H]1CSSC[C@H](NC(=O)[C@@H](N)CCCCNC(=O)COCCOCCNC(=O)CC[C@H](NC(=O)CCCCCCCCCCCCCCCCCCC(=O)O)C(=O)O)C(=O)N[C@@H](CC(N)=O)C(=O)N[C@@H]([C@@H](C)O)C(=O)N[C@@H](C)C(=O)N[C@@H]([C@@H](C)O)C(=O)N1)[C@@H](C)O)C(=O)N1CCC[C@H]1C(=O)N[C@@H](CO)C(=O)N[C@@H](CO)C(=O)N[C@H](C(=O)N[C@@H](CC(N)=O)C(=O)N[C@H](C(=O)NCC(=O)N[C@@H](CO)C(=O)N[C@@H](CC(N)=O)C(=O)N[C@H](C(=O)N[C@@H](Cc1ccc(O)cc1)C(N)=O)[C@@H](C)O)C(C)C)[C@@H](C)O
notes: also called compound 82
B3: N^ε1-[2-[2-[2-[[(4S)-4-carboxy-4-(19-carboxynonadecanoylamino)butanoyl]amino]ethoxy]ethoxy]acetyl]-[Arg17,Pro21,Pro27,Arg34]-h-amylin (peptide)
peptide: K([AEEA-γGlu-C20 diacid])CNTATCATQRLANFLRHSSPNFGAIPSSTNVGRNTY-NH2
modifications: disulfide 2-7; N-terminus assumed
SMILES: CC[C@H](C)[C@H](NC(=O)[C@H](C)NC(=O)CNC(=O)[C@H](Cc1ccccc1)NC(=O)[C@H](CC(N)=O)NC(=O)[C@@H]1CCCN1C(=O)[C@H](CO)NC(=O)[C@H](CO)NC(=O)[C@H](Cc1c[nH]cn1)NC(=O)[C@H](CCCNC(=N)N)NC(=O)[C@H](CC(C)C)NC(=O)[C@H](Cc1ccccc1)NC(=O)[C@H](CC(N)=O)NC(=O)[C@H](C)NC(=O)[C@H](CC(C)C)NC(=O)[C@H](CCCNC(=N)N)NC(=O)[C@H](CCC(N)=O)NC(=O)[C@@H](NC(=O)[C@H](C)NC(=O)[C@@H]1CSSC[C@H](NC(=O)[C@@H](N)CCCCNC(=O)COCCOCCNC(=O)CC[C@H](NC(=O)CCCCCCCCCCCCCCCCCCC(=O)O)C(=O)O)C(=O)N[C@@H](CC(N)=O)C(=O)N[C@@H]([C@@H](C)O)C(=O)N[C@@H](C)C(=O)N[C@@H]([C@@H](C)O)C(=O)N1)[C@@H](C)O)C(=O)N1CCC[C@H]1C(=O)N[C@@H](CO)C(=O)N[C@@H](CO)C(=O)N[C@H](C(=O)N[C@@H](CC(N)=O)C(=O)N[C@H](C(=O)NCC(=O)N[C@@H](CCCNC(=N)N)C(=O)N[C@@H](CC(N)=O)C(=O)N[C@H](C(=O)N[C@@H](Cc1ccc(O)cc1)C(N)=O)[C@@H](C)O)C(C)C)[C@@H](C)O
notes: also called compound 78

Molecular target: T1, human calcitonin receptor
Experiment: ratio IC50 hCTR / IC50 hAmylin-R (reference: human amylin receptor), SPA competition assays
Description: The resulting pellet was resuspended, homogenized and centrifuged (20.000 rpm, 15 min) in a buffer containing 20 mM Na-HEPES and 0.1 mM EDTA (pH 7.4, buffer 2). The resulting pellet was resuspended in buffer 2 and protein concentration was measured (BCA protein Assay, Pierce). The homogenate was kept cold during the whole procedure. The membranes were kept at −80° C. until use. The assay was performed in a 384 well Optiplate (PerkinElmer) in a total volume of 40 ul. Membranes were mixed with SPA beads. Final concentration of membranes 35 ng/μL final and SPA beads was 0.05 mg/well. Test-compounds were dissolved in DMSO and further diluted in assay buffer (50 mM Hepes, pH 7.4, 1 mM CaCl2, 5 mM MgCl₂, 0.1% OA and 0.02% Tween20). […] The final mixture was incubated with shaking at 400 rpm for 120 min at 25° C. prior to centrifugation (1500 rpm, 10 min). Samples were analyzed on TopCounter™ (Packard). The IC₅₀ was calculated using (one site binding competition analysis) GraphPad Prism5 as a measure of receptor affinity.
Membranes were prepared in the following way; the cells were rinsed with PBS and incubated with Versene for approximately 5 min before harvesting. The cells were flushed with PBS and the cell-suspension was centrifuged for 5 min at 1000 rpm. Cells were homogenized (Ultrathurrax) in a buffer containing 20 mM Na-HEPES and 10 mM EDTA (pH 7.4) and centrifuged at 20.000 rpm for 15 min. The resulting pellet was resuspended, homogenized and centrifuged (20.000 rpm, 15 min) in a buffer containing 20 mM Na-HEPES and 0.1 mM EDTA (pH 7.4, buffer 2). The resulting pellet was resuspended in buffer 2 and protein concentration was measured (BCA protein Assay, Pierce). The homogenate was kept cold during the whole procedure. The membranes were kept at −80° C. until use. Assay was performed in a 384 well Optiplate (PerkinElmer) in a total volume of 40 ul. Membranes were mixed with SPA beads.

Row | Ratio hCT/hAmylin binding | Binder
1 | 79.6 | B1
2 | 140 | B2
3 | 60.7 | B3

Molecular target: T1, human calcitonin receptor
Experiment: SPA competition with 125I-calcitonin on membranes of BHK cells with human calcitonin receptor (Assay VII)
Description: Membranes were prepared in the following way; the cells were rinsed with PBS and incubated with Versene for approximately 5 min before harvesting. The cells were flushed with PBS and the cell-suspension was centrifuged for 5 min at 1000 rpm. Cells were homogenized (Ultrathurrax) in a buffer containing 20 mM Na-HEPES and 10 mM EDTA (pH 7.4) and centrifuged at 20.000 rpm for 15 min. The resulting pellet was resuspended, homogenized and centrifuged (20.000 rpm, 15 min) in a buffer containing 20 mM Na-HEPES and 0.1 mM EDTA (pH 7.4, buffer 2). The resulting pellet was resuspended in buffer 2 and protein concentration was measured (BCA protein Assay, Pierce). The homogenate was kept cold during the whole procedure. The membranes were kept at −80° C. until use. Assay was performed in a 384 well Optiplate (PerkinElmer) in a total volume of 40 ul. Membranes were mixed with SPA beads. Final concentration of membranes 35 ng/μL final and Final concentration of SPA beads was 0.05 mg/well. Test-compounds were dissolved in DMSO and further diluted in assay buffer (50 mM Hepes, pH 7.4, 1 mM CaCl2, 5 mM MgCl₂, 0.1% OA and 0.02% Tween20). […] The final mixture was incubated for 120 min with shaking at 400 rpm at 25° C. prior to centrifugation (1500 rpm, 10 min). Samples were analyzed on TopCounter™ (Packard). The […] was calculated using (one site binding competition analysis) GraphPad Prism5 as a measure of receptor affinity.

Row | IC50 [nM] | Binder
4 | 13.2 | B1
5 | 88.8 | B2
6 | 36.5 | B3

Molecular target: T2, human amylin receptor (amylin 3(a) …)
Experiment: SPA competition with 125I-rat amylin on membranes of BHK cells with human calcitonin receptor and RAMP-3 (Assay V)
Description: The binding assay was performed using scintillation proximity assay (SPA) beads (RPNQ0001) from PerkinElmer and cell membranes from the Amylin 3(a)/CRE-luc cells (as described in Assay (II)) were used. Membranes were prepared in the following way; the cells were rinsed with PBS and incubated with Versene for approximately 5 min before harvesting. The cells were flushed with PBS and the cell-suspension was centrifuged for 5 min at 1000 rpm. Cells were homogenized (ultrathurrax) in a buffer containing 20 mM Na-HEPES and 10 mM EDTA (pH 7.4) and centrifuged at 20.000 rpm for 15 min. The resulting pellet was resuspended, homogenized and centrifuged (20.000 rpm, 15 min) in a buffer containing 20 mM Na-HEPES and 0.1 mM EDTA (pH 7.4, buffer 2). The resulting pellet was resuspended in buffer 2 and protein concentration was measured (BCA protein Assay, Pierce). The homogenate was kept cold during the whole procedure. The membranes were kept at −80° C. until use. The assay was performed in a 384 well Optiplate (PerkinElmer) in a total volume of 40 ul. Membranes were mixed with SPA beads. Final concentration of membranes 35 ng/μL final and SPA beads was 0.05 mg/well. Test-compounds were dissolved in DMSO and further diluted in assay buffer (50 mM Hepes, pH 7.4, 1 mM CaCl2, 5 mM MgCl₂, 0.1% OA and 0.02% Tween20). […] The final mixture was incubated with shaking at 400 rpm for 120 min at 25° C. prior to centrifugation (1500 rpm, 10 min). Samples were analyzed on TopCounter™ (Packard). The IC₅₀ was calculated using (one site binding competition analysis) GraphPad Prism5 as a measure of receptor affinity.

Row | IC50 [nM] | Binder
7 | 0.166 | B1
8 | 0.636 | B2
9 | 0.602 | B3
